This note sets out measurements from patent publication US20240059784A1 (Eli Lilly, published 2024).

The target of assay [1] is T1, human TfR ECD (His-tagged) (human, UniProt P02786 89-760).
T1 construct: also called hTfR-ECD-6His; his-tagged hTfR-ECD
Kind of assay: SPR (Biacore 8K), 25 C; His-tagged TfR ECD captured by anti-His antibody, TBP as analyte; single-cycle kinetics, 2-state fit. The method, then: (§1) An anti-His antibody was immobilized on a CM5 chip (Cytiva P/N 29104988) using standard NHS-EDC amine coupling on all four flow cells (Fc). Target (human or cynomolgus TfR ECD) were prepared in the running buffer at final concentration of 500 μg/mL.
(§2) Binding analysis was performed in a single-cycle kinetics manner. Each analysis cycle consists of (1) capturing the target (His-tagged human or cynomolgus TfR ECD) samples on separate flow cells (Fc2, Fc3 and Fc4); (2) injection of the lowest to highest concentration of antibodies or proteins over all Fc at 30 μL/min for 900 seconds followed by return to buffer flow for 1800 seconds to monitor dissociation phase; (3) regeneration of chip surfaces with injection of 10 mM glycine, pH 1.5, for 30 seconds at […] over all cells; and (4) equilibration of chip surfaces with a 10 μL (60-sec) injection of HBS-EP+. Data were processed using standard double-referencing and fit to a 2-state binding model using Biacore 8K Evaluation software, to determine the association rate (kₒₙ, M⁻¹s⁻¹ units), dissociation rate (koff, s⁻¹ units), and Rₘₐₓ (RU units). The equilibrium dissociation constant (KD) is calculated from the relationship KD=koff/kₒₙ, and is in molar units.
Target sequence in this assay (P02786 other isoform, or with tags, fused parts or gaps): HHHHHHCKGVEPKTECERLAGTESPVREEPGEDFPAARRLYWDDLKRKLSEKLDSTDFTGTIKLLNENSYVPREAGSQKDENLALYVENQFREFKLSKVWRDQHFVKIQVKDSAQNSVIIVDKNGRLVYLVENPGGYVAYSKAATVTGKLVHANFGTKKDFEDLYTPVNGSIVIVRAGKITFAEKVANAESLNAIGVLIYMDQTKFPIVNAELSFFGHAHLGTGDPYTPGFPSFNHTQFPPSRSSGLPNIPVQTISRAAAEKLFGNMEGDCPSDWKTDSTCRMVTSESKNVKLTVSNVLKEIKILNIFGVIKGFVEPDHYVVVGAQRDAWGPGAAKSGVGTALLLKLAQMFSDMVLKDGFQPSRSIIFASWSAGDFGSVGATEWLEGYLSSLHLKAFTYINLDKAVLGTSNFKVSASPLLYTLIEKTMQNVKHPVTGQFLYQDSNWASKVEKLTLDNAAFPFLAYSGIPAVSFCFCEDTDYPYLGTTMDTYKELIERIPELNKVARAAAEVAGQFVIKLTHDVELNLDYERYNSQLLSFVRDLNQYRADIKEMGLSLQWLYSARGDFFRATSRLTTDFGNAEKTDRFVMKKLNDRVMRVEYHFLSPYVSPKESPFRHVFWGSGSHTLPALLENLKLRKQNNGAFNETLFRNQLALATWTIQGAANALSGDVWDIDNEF
(In general: Surface plasmon resonance follows binding to a sensor surface in real time, without labels.)

In assay [2] the target is T2, cynomolgus TfR ECD (cynomolgus).
T2 chain: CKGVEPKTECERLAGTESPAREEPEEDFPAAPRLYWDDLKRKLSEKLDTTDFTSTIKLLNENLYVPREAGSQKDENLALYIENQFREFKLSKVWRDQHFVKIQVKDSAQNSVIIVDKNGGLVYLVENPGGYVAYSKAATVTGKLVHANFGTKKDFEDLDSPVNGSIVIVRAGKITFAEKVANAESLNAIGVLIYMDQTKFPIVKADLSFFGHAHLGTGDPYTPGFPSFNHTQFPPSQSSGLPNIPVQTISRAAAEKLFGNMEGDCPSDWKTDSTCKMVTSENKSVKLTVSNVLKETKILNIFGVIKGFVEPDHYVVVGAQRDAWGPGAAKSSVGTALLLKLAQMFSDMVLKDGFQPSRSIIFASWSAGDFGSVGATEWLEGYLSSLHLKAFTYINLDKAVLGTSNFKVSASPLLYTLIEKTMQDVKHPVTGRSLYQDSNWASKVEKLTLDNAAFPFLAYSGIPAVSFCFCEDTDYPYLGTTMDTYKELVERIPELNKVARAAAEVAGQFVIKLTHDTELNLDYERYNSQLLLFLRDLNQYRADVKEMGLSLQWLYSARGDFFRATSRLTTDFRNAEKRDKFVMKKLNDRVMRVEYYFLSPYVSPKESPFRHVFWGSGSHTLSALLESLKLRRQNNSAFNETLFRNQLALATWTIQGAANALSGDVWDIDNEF
The assay is described as above. The method, then:
as §1, §2

For the next assay, the target named is T3, human TfR (cell-bound) (human, UniProt P02786 1-760).
T3 construct: Endogenous receptor on hCMEC-D3 cells (stated); also called hTFR; human transferrin receptor on hCMEC-D3 cells
T3 sequence (P02786 whole entry): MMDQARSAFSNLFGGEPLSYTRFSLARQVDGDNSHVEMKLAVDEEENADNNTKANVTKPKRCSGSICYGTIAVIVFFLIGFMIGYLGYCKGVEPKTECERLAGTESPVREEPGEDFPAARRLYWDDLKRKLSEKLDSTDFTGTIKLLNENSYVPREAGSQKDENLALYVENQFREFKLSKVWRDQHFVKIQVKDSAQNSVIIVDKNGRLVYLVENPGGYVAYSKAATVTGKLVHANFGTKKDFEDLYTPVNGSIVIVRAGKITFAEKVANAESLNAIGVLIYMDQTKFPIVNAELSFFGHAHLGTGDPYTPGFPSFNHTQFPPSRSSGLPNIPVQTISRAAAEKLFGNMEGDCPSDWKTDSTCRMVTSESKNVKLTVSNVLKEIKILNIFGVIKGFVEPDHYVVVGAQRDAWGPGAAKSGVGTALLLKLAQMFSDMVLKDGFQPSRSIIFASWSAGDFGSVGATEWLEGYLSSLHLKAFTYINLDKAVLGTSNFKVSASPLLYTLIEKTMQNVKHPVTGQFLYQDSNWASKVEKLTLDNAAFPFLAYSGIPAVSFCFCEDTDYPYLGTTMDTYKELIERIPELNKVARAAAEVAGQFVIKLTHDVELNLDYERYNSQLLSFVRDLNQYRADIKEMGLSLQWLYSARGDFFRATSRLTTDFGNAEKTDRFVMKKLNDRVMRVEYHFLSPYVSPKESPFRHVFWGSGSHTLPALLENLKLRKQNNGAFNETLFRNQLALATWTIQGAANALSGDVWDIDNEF
Kind of assay: flow cytometry on hCMEC-D3 cells (endogenous human TfR), on ice, PE-labeled secondary. The procedure: (§3) Human endothelial line hCMEC-D3 (EMD Millipore SC066), endogenously expressing human TfR and MDCK cell line (ATCC CCL-34), engineered to express cynomolgus TfR were utilized to evaluate antibody/protein binding to cell-bound TfR. Cells were grown and maintained at submaximal confluence and detached from cultureware using Accutase cell detachment solution, washed, and allocated at 50000 cells per well for assessment of binding. Cells were treated with a viability stain then subsequently incubated with titrated concentrations of TfR binding proteins on ice. Cells were washed and binding of test antibodies or proteins was detected using a PE-labeled secondary reagent. Cells were then washed and read on the same day using a BioRad ZE5 cytometer. Analysis was performed post-acquisition in FlowJo, analyzing fluorescence of single, viable, non-debris events. EC50 values were derived by plotting geometric median PE intensity values across a given sample titration and fitting a sigmoidal (4PL) response curve in GraphPad Prism 8.3.0.
In general terms: A flow cytometer gives signals particle by particle.

The target of assay [3] is T1, human TfR ECD (His-tagged). As to the kind of experiment: SPR (Biacore 8K), 37 C; TfR ECD amine-coupled to CM4 chip, TBP as analyte; multi-cycle kinetics, 2-state fit; n = 3. The method, then:
(§4) Target human and cynomolgous TfR ECD's were immobilized on a CM4 chip (Cytiva P/N 29104989) using standard NHS-EDC amine coupling. The TfR binding proteins were prepared at a final concentration of 0.3, 0.1, 0.033, 0.01, 0.0033, 0.001, 0.00033, 0.0001 μM respectively by dilution of stock solution into running buffer.
(§5) Binding analysis was performed in a multi-cycle kinetics manner. Each analysis cycle consists of (1) injection of the lowest to highest concentration proteins over all Fc at 50 μL/min for 140 seconds followed by return to buffer flow for 400 seconds to monitor dissociation phase; (2) regeneration of chip surfaces with injection of 3M magnesium chloride, for 30 seconds at 100 μL/min over all cells; and (3) equilibration of chip surfaces with a 50 μL (30-sec) injection of HBS-EP+. Data were processed using standard double-referencing and fit to a 2-state binding model using Biacore 8K Evaluation software, to determine the association rate (kₒₙ, M⁻¹s⁻¹ units), dissociation rate (koff, s⁻¹ units), and Rₘₐₓ (RU units). The equilibrium dissociation constant (KD) is calculated from the relationship KD=koff/kₒₙ, and is in molar units.

The target of assay [4] is T4, cynomolgus TfR (on MDCK cells) (cynomolgus, UniProt H9EXL1 1-760 (rhesus entry)).
T4 construct: whole, on cells; also called Cyno MDCK
Kind of assay: flow cytometry on MDCK cells engineered to express cynomolgus TfR, on ice, PE-labeled secondary. The procedure:
as §3

The target of assay [5] is T2, cynomolgus TfR ECD. As to the kind of experiment: SPR (Biacore 8K), 37 C; TfR ECD amine-coupled to CM4 chip, TBP as analyte; multi-cycle kinetics, 2-state fit; n = 3. The procedure: as §4, §5
The target in assay [6] is T5, cynomolgus TfR ECD (cynomolgus).
T5 construct: extracellular domain; amine-coupled in the 37 C assay; also called Cyno TfR; His-tagged cynomolgus TfR ECD
The assay is described as above. The procedure:
as §4, §5

B1: TBP1 (TBD1 Fab-hIgG4PAA Fc) (antibody, V domains shown)
VH: EVQLVESGGGLVKPGGSLRLSCVASGFTFSSYSMNWVRQAPGKGLEWVSSISRSSSYIYYADSVKGRFTISRDNAKNSLYLQMNSLRAEDTAVYYCAREHGYSNSDAFDIWGQGTLVTVSS
VL: DIQMTQSPSAMSASVGDRVTITCRASQGISNYLAWFQQKPGKVPKRLIYAASSLQSGVPSRFSGSGSGTEFTLTISSLQPEDFATYYCLQHNSYPRTFGQGTKVEIKR
In general, Kd refers to the equilibrium constant for the complex coming apart. A high value points to weaker binding. Usually EC50 stands for the concentration needed to bring the measured effect to its halfway point. Low readings indicate a more potent agent, high ones a less potent agent. For B1, the Kd is 110 pM in assay [1], 145 nM in the assay with cynomolgus TfR ECD [2] and 0.966 nM in assay [3]. The EC50 with human TfR (cell-bound) was 0.47 nM; in assay [4], 510 nM.

B2: TBP3 (TBD3 Fab-hIgG4PAA Fc) (antibody, V domains shown)
VH: EVQLVESGGGLVKPGGSLRLSCVASGFTFSSYSMNWVRQAPGKGLEWVSSISRSSSYIYYADSVKGRFTISRDNAKNSLYLQMNSLRAEDTAVYYCARIHGYSNSDAFDIWGQGTLVTVSS
VL: DIQMTQSPSAMSASVGDRVTITCRASQGISHYLVWFQQKPGKVPKRLIYAASSLQSGVPSRFSGSGSGTEFTLTISSLQPEDFATYYCLQHNSYPRTFGQGTKVEIKR
notes: Fab-Fc format, one HC and one LC
On to B2, for which the Kd in assay [1] amounted to 0.048 pM; with cynomolgus TfR ECD [2] it was 0.015 nM; in assay [3] it was 0.005 nM; with cynomolgus TfR ECD [5], 0.254 nM. In addition, the EC50 is 0.14 nM with human TfR (cell-bound) and 0.15 nM in assay [4].

B3: TBP14-SNCA siRNA (dsRNA No. 10 in Table 11a) (antibody)
heavy: EVQLVESGGGLVKPGGSLRLSCVASGFTFSSYSMNWVRQAPGKGLEWVSSISSSSSYIYYADSVKGRFTISRDNAKNSLYLQMNSLRAEDTAVYYCARRHGYSNSDAFDNWGQGTLVTVSSASTKGPSVFPLAPCSRSTSESTAALGCLVKDYFPEPVTVSWNSGALTSGVHTFPAVLQSSGLYSLSSVVTVPSSSLGTKTYTCNVDHKPSNTKVDKRVESKYGPPCPPCPAPEAAGGPSVFLFPPKPKDTLMISRTPEVTCVVVDVSQEDPEVQFNWYVDGVEVHNAKTKPREEQFNSTYRVVSVLTVLHQDWLNGKEYKCKVSNKGLPSSIEKTISKAKGQPREPQVSTLPPSQEEMTKNQVSLMCLVYGFYPSDICVEWESNGQPENNYKTTPPVLDSDGSFFLYSVLTVDKSRWQEGNVFSCSVMHEALHNHYTQKSLSLSLG
light: DIQMTQSPSAMSASVGDRVTITCRASQGISHYLVWFQQKPGKVPKRLIYAASSLQSGVPSRFSGSGSGTEFTLTISSLQPEDFATYYCLQHNSYPWTFGQGTKVEIKRTVAAPSVFIFPPSDEQLKSGTASVVCLLNNFYPREAKVQWKVDNALQSGNSQESVTEQDSKDSTYSLSSTLTLSKADYEKHKVYACEVTHQGLSSPVTKSFNRGEC
chain: ESKYGPPCPPCPAPEAAGGPSVFLFPPKPKDTLMISRTPEVTCVVVDVSQEDPEVQFNWYVDGVEVHNAKTKPREEQFNSTYRVVSVLTVLHQDWLNGKEYKCKVSNKGLPSSIEKTISKAKGQPREPQVYTLPPSQGDMTKNQVQLTCLVKGFYPSDICVEWESNGQPENNYKTTPPVLDSDGSFFLASRLTVDKSRWQEGNVFSCSVMHEALHNHYTQKSLSLSLG
modifications: SNCA siRNA (dsRNA No. 10) conjugated through a linker at the engineered cysteine (A378C, EU numbering, by the name in Table 6b)
notes: Protein-siRNA conjugate of TBP14; also called TBP14-SNCA siRNA conjugate
Consider B3, for which the EC50 with human TfR (cell-bound) was found to be 298 nM; in assay [4], 225 nM. Moreover, the Kd in assay [3] turned out to be 541 nM.

B4: TBP14 (TBD4-one arm heteromab, A378C) (antibody, human IgG4 S228P, kappa, F234A L235A)
heavy: EVQLVESGGGLVKPGGSLRLSCVASGFTFSSYSMNWVRQAPGKGLEWVSSISSSSSYIYYADSVKGRFTISRDNAKNSLYLQMNSLRAEDTAVYYCARRHGYSNSDAFDNWGQGTLVTVSSASTKGPSVFPLAPCSRSTSESTAALGCLVKDYFPEPVTVSWNSGALTSGVHTFPAVLQSSGLYSLSSVVTVPSSSLGTKTYTCNVDHKPSNTKVDKRVESKYGPPCPPCPAPEAAGGPSVFLFPPKPKDTLMISRTPEVTCVVVDVSQEDPEVQFNWYVDGVEVHNAKTKPREEQFNSTYRVVSVLTVLHQDWLNGKEYKCKVSNKGLPSSIEKTISKAKGQPREPQVSTLPPSQEEMTKNQVSLMCLVYGFYPSDICVEWESNGQPENNYKTTPPVLDSDGSFFLYSVLTVDKSRWQEGNVFSCSVMHEALHNHYTQKSLSLSLG
light: DIQMTQSPSAMSASVGDRVTITCRASQGISHYLVWFQQKPGKVPKRLIYAASSLQSGVPSRFSGSGSGTEFTLTISSLQPEDFATYYCLQHNSYPWTFGQGTKVEIKRTVAAPSVFIFPPSDEQLKSGTASVVCLLNNFYPREAKVQWKVDNALQSGNSQESVTEQDSKDSTYSLSSTLTLSKADYEKHKVYACEVTHQGLSSPVTKSFNRGEC
chain: ESKYGPPCPPCPAPEAAGGPSVFLFPPKPKDTLMISRTPEVTCVVVDVSQEDPEVQFNWYVDGVEVHNAKTKPREEQFNSTYRVVSVLTVLHQDWLNGKEYKCKVSNKGLPSSIEKTISKAKGQPREPQVYTLPPSQGDMTKNQVQLTCLVKGFYPSDICVEWESNGQPENNYKTTPPVLDSDGSFFLASRLTVDKSRWQEGNVFSCSVMHEALHNHYTQKSLSLSLG
notes: One-armed antibody: two heavy chains (HC1 full, HC2 Fc only) and one light chain; no LC2
As for B4, the Kd with cynomolgus TfR ECD [6] came out at 300 nM; in assay [3] it was 154 nM.

B5: TBP5 (TBD5 Fab-hIgG4PAA Fc) (antibody, V domains shown)
VH: EVQLVESGGGLVQPGGSLRLSCAASGFTFRTYWMHWVRQAPGKGLLWVSRINGDGSRTNYADSVKGRFTISRDNAKKTLYLQMNSLRAEDTAVYFCARSSYAFDVWGQGTMVTVSS
VL: DVVMTQTPLSLPVTPGEPASISCRSSQSLLDSDDGSTYLDWYLQKPGQSPQLLIYLLSNRASGVPDRFSGSGSGTVFTLKISSVEAADVGVYYCMQRIEFPLTFGGGTKVEIKR
notes: as for B2
Take B5: the Kd worked out at 590 pM in assay [1], 1.47 nM with cynomolgus TfR ECD [2], 4.25 nM in assay [3] and 156 nM with cynomolgus TfR ECD [5]. The EC50 with human TfR (cell-bound) was found to be 4.83 nM; in assay [4], 1.63 nM.

B6: TBP6 (TBD6 Fab-hIgG4PAA Fc) (antibody, V domains shown)
VH: EVQLVESGGGLVQPGGSLRLSCAASGFTFRTYWMHWVRQAPGKGLVWVSRINSDGSRTNYADSVKGRFTISRDNAKNTLYLQMNSLRAEDTAVYYCARSSYAFDVWGQGTLVTVSS
VL: DIVMTQTPLSLPVTPGEPASISCRSSQSLLDSDDGSTYLDWYLQKPGQSPQLLIYLLSNRASGVPDRFSGSGSGTDFTLKISRVEAEDVGVYYCMQRIEFPLTFGGGTKVEIKR
notes: as for B2
As for B6, the equilibrium dissociation constant (Kd) was 60 pM in assay [1], 7.7 nM with cynomolgus TfR ECD [2], 2.25 nM in assay [3] and 92.5 nM with cynomolgus TfR ECD [5]. Further, the EC50 with human TfR (cell-bound) is 1.2 nM; in assay [4], 0.76 nM.
